Experimental data reported in patent US20180044435A1 (GENEFRONTIER, published 2018).

How the values were obtained:
[1] = biological target: fusion protein of MBP with region 524-562 of human membrane-anchored form ADAM28 (SEQ ID NO: 2) at its … (human); test: Western blotting
Protocol: The reactivity of anti-human membrane-anchored form ADAM28 antibody 2B6D10 with the above-mentioned fusion proteins was evaluated by Western blotting.

[2] = biological target: T1, MBP-mouse ADAM28m 527-622 (mouse, UniProt Q9JLN6 527-622); test: SPR, BIAcore 3000, fusion protein amine-coupled on CM5 chip, antibody injected
T1 sequence: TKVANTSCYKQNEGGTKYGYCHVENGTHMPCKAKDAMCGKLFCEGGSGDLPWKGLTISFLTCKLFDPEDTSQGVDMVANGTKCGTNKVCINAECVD
Protocol: (§1) A fusion protein in which a 524-659 region of human membrane-anchored form ADAM28 (SEQ ID NO: 2) is added to C-terminal of MBP (MBP-human ADAM28m 524-659) and a fusion protein in which a 527-622 region of mouse membrane-anchored form ADAM28 (SEQ ID NO: 26) is added to C-terminal of MBP (MBP-mouse ADAM28m 527-622) were each immobilized on CM5 sensor chip (GE Healthcare Life Sciences, Buckinghamshire, UK) by amine-coupling and 2B6D10 antibody was injected to a flow cell by using BIAcore 3000 (GE Healthcare Life Sciences). The KD value was calculated from the measured Ka and Kd values.

[3] = biological target: T2, MBP-human ADAM28m 524-659 (human, UniProt Q9UKQ2 524-659); test: as above
T2 construct: also called the immunogen
T2 sequence: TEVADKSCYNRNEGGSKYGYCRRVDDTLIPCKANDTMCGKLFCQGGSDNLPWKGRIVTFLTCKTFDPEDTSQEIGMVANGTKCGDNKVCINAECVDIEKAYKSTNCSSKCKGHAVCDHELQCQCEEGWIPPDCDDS
Protocol: as §1

[4] = biological target: T3, mouse membrane-anchored form ADAM28 (mouse, UniProt Q9JLN6 196-774); test: immunofluorescence staining of transfected CHO-K1 cells, 5 µg/ml antibody
T3 construct: Expressed on transfected CHO-K1 cells; also called mouse ADAM28m; mouse ADAM28
T3 chain: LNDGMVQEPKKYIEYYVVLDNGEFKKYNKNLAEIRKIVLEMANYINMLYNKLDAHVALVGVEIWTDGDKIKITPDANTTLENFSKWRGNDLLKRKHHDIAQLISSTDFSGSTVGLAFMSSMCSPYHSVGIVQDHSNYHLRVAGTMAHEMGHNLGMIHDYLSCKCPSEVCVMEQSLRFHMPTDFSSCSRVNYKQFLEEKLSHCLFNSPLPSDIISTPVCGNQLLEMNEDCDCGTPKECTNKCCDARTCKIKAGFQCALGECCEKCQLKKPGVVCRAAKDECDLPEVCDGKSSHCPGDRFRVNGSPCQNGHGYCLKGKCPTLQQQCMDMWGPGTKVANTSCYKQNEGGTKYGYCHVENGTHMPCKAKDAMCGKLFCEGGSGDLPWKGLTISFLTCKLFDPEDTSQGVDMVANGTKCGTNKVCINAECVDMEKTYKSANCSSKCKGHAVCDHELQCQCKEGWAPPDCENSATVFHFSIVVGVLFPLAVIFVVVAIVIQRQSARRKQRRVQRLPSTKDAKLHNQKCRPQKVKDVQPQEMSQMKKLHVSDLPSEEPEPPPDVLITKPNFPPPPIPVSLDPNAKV
Protocol: CHO-K1 cells co-transfected with mouse membrane-anchored form ADAM28 and EGFP were treated with 2B6D10 antibody (5 μg/ml) at 4° C. for 1.5 hr. The cells were washed and treated with anti-mouse IgG-Alexa555 (1:300) at 4° C. for 1 hr. The cells were washed, fixed and observed. The results are shown in, FIG. 3.

B1: anti-human membrane-anchored form ADAM28 antibody 2B6D10 (antibody, V domains shown)
VH: QVQLQQSGAELARPGASVKLSCKASGYTFTSYGISWVKQRTGQGLEWIGEIYPRSGNTYYNEKFKGKATLTADKSSSTAYMELRRLTSEDSAVFFCARENVYSSNYGFAFWGQGTLVTVSA
VL: DVLMTQTPLSLPVSLGDQASISCRSSQNIIHSDGNTYLEWYLQKPGQSPKFLIYKVSNRFSGVPDRFSGSGSGTDFTLKISRVEAEDLGVYYCLQGSHVPWTFGGGTKLEIKR
notes: Mouse monoclonal antibody from a hybridoma, detected with anti-mouse IgG; also called 2B6D10 antibody; clone 2B6D10
[1]
  binding result: binds
[2]
  Kd: 0.236 nM
[3]
  Kd: 0.0935 nM
[4]
  binding result: binds
